Experimental data taken from patent US20230416371A1 (Chugai, published 2023).

Tests used:
[1] = target: T1, human FcγRIIIa V (allotype V158) extracellular domain (human, UniProt P08637 17-208); experiment: SPR Biacore 8K+; KD of G1d divided by KD of this antibody
T1 construct: extracellular domain; also called hFcγRIIIaV
Procedure: (§1) The extracellular domains of FcγRs were produced by the method described in WO2014104165. The interaction between the produced antibodies and human FcγRs was analyzed using Biacore 8K+by the method below. For the running buffer, 50 mM Na-Phosphate, 150 mM NaCl, and 0.05% Tween20 (pH 7.4) was used, and measurement was performed at 25° C. The sensor chip used was a Series S SA chip (GE Healthcare) onto which CaptureSelect Human Fab-kappa Kinetics Biotin Conjugate (Thermo Fisher Scientific) was immobilized. An antibody of interest was captured onto this chip, and each FcγR diluted with the running buffer was allowed to interact with it. The chip was regenerated using 10 mM Glycine-HCl (pH 1.5), and repeatedly used to capture antibodies and perform measurement. The dissociation constants KD (mol/L) of each antibody for FcγRs were calculated using Biacore Insight Evaluation Software, with a steady state affinity model for the dissociation constant for FcγRIIb and a 1:1 Langmuir binding model for the dissociation constants for the other FcγRs (Table 2).

[2] = target: T2, human FcγRIIIa F (allotype F158) extracellular domain (human, UniProt P08637 17-208); experiment: SPR Biacore 8K+; KD for FcγRIIb divided by KD for this FcγR
T2 construct: extracellular domain; also called hFcγRIIIaF
T2 sequence (P08637 17-208): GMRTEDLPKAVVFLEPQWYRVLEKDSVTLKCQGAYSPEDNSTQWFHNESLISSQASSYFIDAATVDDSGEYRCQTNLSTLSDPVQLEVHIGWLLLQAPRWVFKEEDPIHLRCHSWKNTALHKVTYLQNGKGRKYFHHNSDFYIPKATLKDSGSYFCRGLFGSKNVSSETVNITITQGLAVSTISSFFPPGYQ
Procedure: as §1

T1 sequence (P08637 17-208 F176V): as the sequence (P08637 17-208) above, with F160V counted along it

Binder | Relative value to KD between G1d and hFcγRs [1] [times] | A/I ratio (KD for FcγRIIb divided by KD for each FcγR) [2]
EGL-ART1 (H240-Kn125/L73-k0//H240-H1076/L73-k0) (antibody, human IgG1, kappa, Anti-human Epiregulin IgG1 with heterodimeric (knobs-into-holes) Fc variant; also called Kn125/H1076) heavy 1: QDQLVQSGAEVKKPGASVKVSCKASGFNIKDTYIQWVRQAPGQGLEWMGRIDPLRKQTKYREKFEGRVTITADTSTNTAYMELSSLRSEDTAVYYCVRSGREFDYWGQGTLVTVSSASTKGPSVFPLAPSSKSTSGGTAALGCLVKDYFPEPVTVSWNSGALTSGVHTFPAVLQSSGLYSLSSVVTVPSSSLGTQTYICNVNHKPSNTKVDKKVEPKSCDKTHTCPPCPAPEYQWGPMVFLFPPKPKDTLMISRTPEVTCVVVDVSDEEPEVKFNWYVDGVEVHNAKTKPREEQYNATYRVVSVLTVLHQDWLNGKEYKCKVSNKALPAPIEKTISKAKGQPREPQVCTLPPSRDELTKNQVSLWCLVKGFYPSDIAVEWESNGQPENNYKTTPPVLDSDGSFFLYSKLTVDKSRWQQGNVFSCSVMHEALHNHYTQKSLSLSP heavy 2: QDQLVQSGAEVKKPGASVKVSCKASGFNIKDTYIQWVRQAPGQGLEWMGRIDPLRKQTKYREKFEGRVTITADTSTNTAYMELSSLRSEDTAVYYCVRSGREFDYWGQGTLVTVSSASTKGPSVFPLAPSSKSTSGGTAALGCLVKDYFPEPVTVSWNSGALTSGVHTFPAVLQSSGLYSLSSVVTVPSSSLGTQTYICNVNHKPSNTKVDKKVEPKSCDKTHTCPPCPAPELLGGPSVFLFPPKPKDTLMISRTPEVTCVVVDVSHEEPEVKFNWYVDGVEVHNAKTKPREEQYNSTYRVVSVLTVLHQDWLNGKEYKCKVSNDALPMPIEETISKAKGQPREPQVYTLPPSRCELTKNQVSLSCAVKGFYPSDIAVEWESNGQPENNYKTTPPVLDSDGSFFLVSKLTVDKSRWQQGNVFSCSVMHEALHNHYTQKSLSLSP light: DIQMTQSPSSLSASVGDRVTITCRASQDIHKYIAWYQQKPGQAPRLLIQYTSTLQPGVPSRFSGSGSGTDYTFTISSLQPEDIATYYCLQYEQLRTFGGGTKVEIKRTVAAPSVFIFPPSDEQLKSGTASVVCLLNNFYPREAKVQWKVDNALQSGNSQESVTEQDSKDSTYSLSSTLTLSKADYEKHKVYACEVTHQGLSSPVTKSFNRGEC | 323 | 
EGL-ART2 (H240-Kn120/L73-k0//H240-H1068/L73-k0) (antibody, human IgG1, kappa, Anti-human Epiregulin IgG1 with heterodimeric (knobs-into-holes) Fc variant; also called Kn120/H1068) heavy 1: QDQLVQSGAEVKKPGASVKVSCKASGFNIKDTYIQWVRQAPGQGLEWMGRIDPLRKQTKYREKFEGRVTITADTSTNTAYMELSSLRSEDTAVYYCVRSGREFDYWGQGTLVTVSSASTKGPSVFPLAPSSKSTSGGTAALGCLVKDYFPEPVTVSWNSGALTSGVHTFPAVLQSSGLYSLSSVVTVPSSSLGTQTYICNVNHKPSNTKVDKKVEPKSCDKTHTCPPCPAPEYYWGPMVFLFPPKPKDTLMISRTPEVTCVVVDVSDEDPEVKFNWYVDGVEVHNAKTKPREEQYNATYRVVSVLTVLHQDWLNGKEYKCKVSNKDLPAPIEKTISKAKGQPREPQVCTLPPSRDELTKNQVSLWCLVKGFYPSDIAVEWESNGQPENNYKTTPPVLDSDGSFFLYSKLTVDKSRWQQGNVFSCSVMHEALHNHYTQKSLSLSP heavy 2: QDQLVQSGAEVKKPGASVKVSCKASGFNIKDTYIQWVRQAPGQGLEWMGRIDPLRKQTKYREKFEGRVTITADTSTNTAYMELSSLRSEDTAVYYCVRSGREFDYWGQGTLVTVSSASTKGPSVFPLAPSSKSTSGGTAALGCLVKDYFPEPVTVSWNSGALTSGVHTFPAVLQSSGLYSLSSVVTVPSSSLGTQTYICNVNHKPSNTKVDKKVEPKSCDKTHTCPPCPAPELLGGPSVFLFPPKPKDTLMISRTPEVTCVVVDVSHEEPEVKFNWYVDGVEVHNAKTKPREEQYNSTYRVVSVLTVLHQDWLNGKEYKCKVSNDALPKPIEETISKAKGQPREPQVYTLPPSRCELTKNQVSLSCAVKGFYPSDIAVEWESNGQPENNYKTTPPVLDSDGSFFLVSKLTVDKSRWQQGNVFSCSVMHEALHNHYTQKSLSLSP light: DIQMTQSPSSLSASVGDRVTITCRASQDIHKYIAWYQQKPGQAPRLLIQYTSTLQPGVPSRFSGSGSGTDYTFTISSLQPEDIATYYCLQYEQLRTFGGGTKVEIKRTVAAPSVFIFPPSDEQLKSGTASVVCLLNNFYPREAKVQWKVDNALQSGNSQESVTEQDSKDSTYSLSSTLTLSKADYEKHKVYACEVTHQGLSSPVTKSFNRGEC |  | 58.4

Continued, values first:

Relative value to KD between G1d and hFcγRs [1] [times] | A/I ratio (KD for FcγRIIb divided by KD for each FcγR) [2] | Binder
685 |  | EGL-ART8 (H240-Kn461/L73-k0//H240-HI443/L73-k0) (antibody, human IgG1, kappa, Anti-human Epiregulin IgG1 with heterodimeric (knobs-into-holes) Fc variant) heavy 1: QDQLVQSGAEVKKPGASVKVSCKASGFNIKDTYIQWVRQAPGQGLEWMGRIDPLRKQTKYREKFEGRVTITADTSTNTAYMELSSLRSEDTAVYYCVRSGREFDYWGQGTLVTVSSASTKGPSVFPLAPSSKSTSGGTAALGCLVKDYFPEPVTVSWNSGALTSGVHTFPAVLQSSGLYSLSSVVTVPSSSLGTQTYICNVNHKPSNTKVDKKVEPKSCDKTHTCPPCPAPEFQWGPMVFLFPPKPKDVLMISRTPEVTCVVVDVSDEEPEVKFNWYVDGVEVHNAKTKPREEQYNATYRVVSVLPVLHQDWLNGKEYKCKVSNDALPAPEEKTISKAKGQPREPQVCTLPPSRDELTKNQVSLWCLVKGFYPSDIAVEWESNGQPENNYKTTPPVLDSDGSFFLYSKLTVDKSRWQQGNVFSCSVMHEALHNHYTQKSLSLSP heavy 2: QDQLVQSGAEVKKPGASVKVSCKASGFNIKDTYIQWVRQAPGQGLEWMGRIDPLRKQTKYREKFEGRVTITADTSTNTAYMELSSLRSEDTAVYYCVRSGREFDYWGQGTLVTVSSASTKGPSVFPLAPSSKSTSGGTAALGCLVKDYFPEPVTVSWNSGALTSGVHTFPAVLQSSGLYSLSSVVTVPSSSLGTQTYICNVNHKPSNTKVDKKVEPKSCDKTHTCPPCPAPELLAGPSVFLFPPKPKDVLMISRTPEVTCVVVDVSHEEPEVKFNWYVDGVEVHNAKTKPREEQYNATYRVVSVLPVLHQDWLNGKEYKCKVSNDALPAPEEETISKAKGQPREPQVYTLPPSRCELTKNQVSLSCAVKGFYPSDIAVEWESNGQPENNYKTTPPVLDSDGSFFLVSKLTVDKSRWQQGNVFSCSVMHEALHNHYTQKSLSLSP light: DIQMTQSPSSLSASVGDRVTITCRASQDIHKYIAWYQQKPGQAPRLLIQYTSTLQPGVPSRFSGSGSGTDYTFTISSLQPEDIATYYCLQYEQLRTFGGGTKVEIKRTVAAPSVFIFPPSDEQLKSGTASVVCLLNNFYPREAKVQWKVDNALQSGNSQESVTEQDSKDSTYSLSSTLTLSKADYEKHKVYACEVTHQGLSSPVTKSFNRGEC
 | 387 | EGL-ART5 (H240-Kn462/L73-k0//H240-HI441/L73-k0) (antibody, human IgG1, kappa, Anti-human Epiregulin IgG1 with heterodimeric (knobs-into-holes) Fc variant) heavy 1: QDQLVQSGAEVKKPGASVKVSCKASGFNIKDTYIQWVRQAPGQGLEWMGRIDPLRKQTKYREKFEGRVTITADTSTNTAYMELSSLRSEDTAVYYCVRSGREFDYWGQGTLVTVSSASTKGPSVFPLAPSSKSTSGGTAALGCLVKDYFPEPVTVSWNSGALTSGVHTFPAVLQSSGLYSLSSVVTVPSSSLGTQTYICNVNHKPSNTKVDKKVEPKSCDKTHTCPPCPAPEFQWGPMVFLFPPKPKDVLMISRTPEVTCVVVDVSDEEPEVKFNWYVDGVEVHNAKTKPREEQYNATYRVVSVLPVLHQDWLNGKEYKCKVSNDALPAPIEKTISKAKGQPREPQVCTLPPSRDELTKNQVSLWCLVKGFYPSDIAVEWESNGQPENNYKTTPPVLDSDGSFFLYSKLTVDKSRWQQGNVFSCSVMHEALHNHYTQKSLSLSP heavy 2: QDQLVQSGAEVKKPGASVKVSCKASGFNIKDTYIQWVRQAPGQGLEWMGRIDPLRKQTKYREKFEGRVTITADTSTNTAYMELSSLRSEDTAVYYCVRSGREFDYWGQGTLVTVSSASTKGPSVFPLAPSSKSTSGGTAALGCLVKDYFPEPVTVSWNSGALTSGVHTFPAVLQSSGLYSLSSVVTVPSSSLGTQTYICNVNHKPSNTKVDKKVEPKSCDKTHTCPPCPAPELLAGPSVFLFPPKPKDVLMISRTPEVTCVVVDVSHEEPEVKFNWYVDGVEVHNAKTKPREEQYNATYRVVSVLPVLHQDWLNGKEYKCKVSNDALPAPIEETISKAKGQPREPQVYTLPPSRCELTKNQVSLSCAVKGFYPSDIAVEWESNGQPENNYKTTPPVLDSDGSFFLVSKLTVDKSRWQQGNVFSCSVMHEALHNHYTQKSLSLSP light: DIQMTQSPSSLSASVGDRVTITCRASQDIHKYIAWYQQKPGQAPRLLIQYTSTLQPGVPSRFSGSGSGTDYTFTISSLQPEDIATYYCLQYEQLRTFGGGTKVEIKRTVAAPSVFIFPPSDEQLKSGTASVVCLLNNFYPREAKVQWKVDNALQSGNSQESVTEQDSKDSTYSLSSTLTLSKADYEKHKVYACEVTHQGLSSPVTKSFNRGEC
